The source of these data is article PMC6249866 (Molecular Biology of the Cell, 2018).

The target in the experiment is T1, Asl-A-His6 (WT; Asterless amino acids 1-374) (Drosophila, UniProt Q9VNE4 1-374).
T1 sequence (looked up): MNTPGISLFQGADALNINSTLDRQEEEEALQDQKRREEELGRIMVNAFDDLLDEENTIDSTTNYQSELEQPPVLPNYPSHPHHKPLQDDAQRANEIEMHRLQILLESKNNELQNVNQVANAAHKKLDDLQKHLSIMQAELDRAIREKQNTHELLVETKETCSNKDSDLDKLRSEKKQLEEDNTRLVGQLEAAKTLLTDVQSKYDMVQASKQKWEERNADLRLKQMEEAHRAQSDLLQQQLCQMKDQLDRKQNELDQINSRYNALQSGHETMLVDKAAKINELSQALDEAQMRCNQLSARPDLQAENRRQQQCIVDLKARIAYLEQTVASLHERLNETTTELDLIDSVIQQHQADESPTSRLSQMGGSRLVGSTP
Nature of the experiment: pull-down.

B1: GST-PB1-PB2 (Plk4 amino acids 382-602) (domain or fragment, Drosophila, UniProt O97143 382-602, looked up)
chain: DRISVPPLNTKRLLPTRYKTKNAIMSILRNGEVVLEFLKFRPTYNEDRINDICRISDDGQRIIIYQPDPGRGLPVREQPPDLQIPSGDCVYNYDNLPSKHWKKYIYGARFVGLVKSKTPKVTYFSTLGKCQLMETMTDFEIRFYSGAKLLKTPSEGLKVYDRNGMLLSDYSCSESRSLIEHGNECFTHCVNISNALEVAQTKDNSCFPVTIGRRPITDVQP
On to B1, for which the binding result was “binds”.
